Test results as given in patent publication US12065466B2, “Methods and compositions for protein sequencing” (Quantum-Si Incorporated, priority 2020, dated 2024).
Where two headings read alike, the source gives them in different places.

B1: PS535: UBR-box domain homolog, SEQ ID NO: 163 (protein, listed as Mus musculus)
chain: MLCGRVFKVGEPTYSCRDCAVDPTCVLCMECFLGSIHRDHRYRMTTSGGGGFCDCGDTEAWKEGPYCQKHKL
B2: PS522: UBR-box domain homolog, SEQ ID NO: 150 (protein, listed as Vombatus ursinus)
chain: MLCGKVFKSGETTYSCRDCAIDPTCVLCMNCFQSSVHKNHRYKMHTSTGGGFCDCGDTEAWKTGPFCTIHEP
B3: PS505: UBR-box domain homolog, SEQ ID NO: 133 (protein, listed as Brachionus plicatilis)
chain: MVCGRVFKSGEPSYFCRECGTDPTCVLCSICFRHSKHRYHKYVMMTSGGGGYCDCGDPEAWKSDPCCELHMP
B4: PS538: UBR-box domain homolog, SEQ ID NO: 166 (protein, listed as Saccharomyces cerevisiae)
chain: MGDVHKHTGRNCGRKFKIGEPLYRCHECGCDDTCVLCIHCFNPKDHVNHHVCTDICTEFTSGICDCGDEEAWNSPLHCKAEEQ
B5: PS612: polypeptide with tandem copies of two different ClpS monomers (atClpS2-V1 and PS372) (protein)
chain: MSDSPVDLKPKPKVKPKLERPKLYKVMLLNDDYTPMSFVTVVLKAVFRMSEDTGRRVMMTAHRFGSAVVVVCERDIAETKAKEATDLGKEAGFPLMFTTEPEEGSAGSAAGSGEFMAFPARGKTAPKNEVRRQPPYNVILLNDDDHTYRYVIEMLQKIFGFPPEKGFQIAEEVDRTGRVILLTTSKEHAELKQDQVHSYGPDPYLGRPCSGSMTCVIEPAVGGSHHHHHHHHHHGGGSGGGSGGGSGLNDFFEAQKIEWHEGGGSGGGSGGGSGLNDFFEAQKIEWHE
B6: PS614: polypeptide with two copies of the ClpS binder PS372 oriented in tandem (protein)
chain: MAFPARGKTAPKNEVRRQPPYNVILLNDDDHTYRYVIEMLQKIFGFPPEKGFQIAEEVDRTGRVILLTTSKEHAELKQDQVHSYGPDPYLGRPCSGSMTCVIEPAVGSAGSAAGSGEFMAFPARGKTAPKNEVRRQPPYNVILLNDDDHTYRYVIEMLQKIFGFPPEKGFQIAEEVDRTGRVILLTTSKEHAELKQDQVHSYGPDPYLGRPCSGSMTCVIEPAVGGSHHHHHHHHHHGGGSGGGSGGGSGLNDFFEAQKIEWHEGGGSGGGSGGGSGLNDFFEAQKIEWHE
B7: PS637: two copies of PS557 in tandem separated by Linker 1 (protein)
chain: MPTAASATESAIEDTPAPARPEVDGRTKPKRQPRYHVVLWNDDDHTYQYVVVMLQSLFGHPPERGYRLAKEVDTQGRVIVLTTTREHAELKRDQIHAFGYDRLLARSKGSMKASIEAEEGGGSGGGSGGGSGMPTAASATESAIEDTPAPARPEVDGRTKPKRQPRYHVVLWNDDDHTYQYVVVMLQSLFGHPPERGYRLAKEVDTQGRVIVLTTTREHAELKRDQIHAFGYDRLLARSKGSMKASIEAEEGGSHHHHHHHHHHGGGSGGGSGGGSGLNDFFEAQKIEWHEGGGSGGGSGGGSGLNDFFEAQKIEWHE
B8: PS638: two copies of PS557 in tandem separated by Linker 2 (protein)
chain: MPTAASATESAIEDTPAPARPEVDGRTKPKRQPRYHVVLWNDDDHTYQYVVVMLQSLFGHPPERGYRLAKEVDTQGRVIVLTTTREHAELKRDQIHAFGYDRLLARSKGSMKASIEAEEGSAGSAAGSGEFMPTAASATESAIEDTPAPARPEVDGRTKPKRQPRYHVVLWNDDDHTYQYVVVMLQSLFGHPPERGYRLAKEVDTQGRVIVLTTTREHAELKRDQIHAFGYDRLLARSKGSMKASIEAEEGGSHHHHHHHHHHGGGSGGGSGGGSGLNDFFEAQKIEWHEGGGSGGGSGGGSGLNDFFEAQKIEWHE
B9: PS639: two copies of PS557 in tandem separated by Linker 3 (protein)
chain: MPTAASATESAIEDTPAPARPEVDGRTKPKRQPRYHVVLWNDDDHTYQYVVVMLQSLFGHPPERGYRLAKEVDTQGRVIVLTTTREHAELKRDQIHAFGYDRLLARSKGSMKASIEAEEGSAGSAAGSGEFGSAGSAAGSGEFGSAGSAAGSGEFMPTAASATESAIEDTPAPARPEVDGRTKPKRQPRYHVVLWNDDDHTYQYVVVMLQSLFGHPPERGYRLAKEVDTQGRVIVLTTTREHAELKRDQIHAFGYDRLLARSKGSMKASIEAEEGGSHHHHHHHHHHGGGSGGGSGGGSGLNDFFEAQKIEWHEGGGSGGGSGGGSGLNDFFEAQKIEWHE
B10: PS218: designed variant of atClpS1 with active-site substitutions, SEQ ID NO: 98 (protein)
chain: MIAEPICMQGEGDGEDGGTNRGTSVITRVKPKTKRPNLYRVLLLNDDYTPFQFVIHILERFFQKDREAAWRITLHVHQHGVGECGVFTYEVAETKVSQVMDFARQHQHPLQCVMEKK

What was measured:
[1] = tested on: immobilized peptides containing N-terminal R, K or H; assay: Biolayer interferometry of UBR-box domain homologs; assay type: binding; conditions: for binding range for RX dipeptides / dissociation rates with R dipeptides: 14 peptides RXGGGDDDFFK (SEQ ID NO: 241); for binding affinity to N-terminal R with different penultimate amino acids: 14 polypeptides containing N-terminal R; for binding to RA/KA/HA peptides (single-point screening): 30° C., XAKLDEESILKQK
Description: The amino acid binding properties of UBR-box domain homologs were evaluated by biolayer interferometry. Peptides containing an N-terminal arginine (R), followed by different amino acids in the penultimate position, were immobilized on a biolayer interferometry sensor surface, allowed to bind to UBR-box protein, and incubated in buffer to allow the UBR-box molecules to dissociate. […] FIG. 32C is a heatmap showing results measured for 24 UBR-box homologs against 14 polypeptides containing N-terminal R followed by different amino acids in the penultimate position.
UBR proteins bind to the basic N-terminal residues R, K, and H as part of the conserved N-end rule pathway. To identify high-affinity UBR proteins with properties favorable for use in sequencing, a diverse panel of uncharacterized UBR-box domain homologs from 44 species (PS501-PS544) was designed. UBR-box domain homologs were expressed, purified, and evaluated for binding to N-terminal amino acids by biolayer interferometry. Measurements were carried out at 30° C. for each protein for R, K and H binding. The amino-acid binding profile of each new homolog was first evaluated by biolayer interferometry using a single-point screening assay. All peptides in this screen contained a penultimate alanine (A) and consisted of the sequence XAKLDEESILKQK (SEQ ID NO: 238), where X is R, K, or H.
To evaluate the effect of penultimate amino acids on arginine binding, UBR box-domain homologs were evaluated for binding to 14 different peptides with N-terminal RX (peptide sequence: RXGGGDDDFFK (SEQ ID NO: 241)). The selected RX dipeptides are the 14 most frequently found in the human proteome.

[2] = tested on: amino acid at a terminal position of a polypeptide; conditions: Table 2; amino acid identity at a terminal position (phosphotyrosine also internal); inferred from literature and/or demonstrated by the inventors; cited from earlier work
[3] = tested on: peptides with different N-terminal amino acids, penultimate alanine; assay: Biolayer interferometry of multivalent amino acid binders; assay type: binding
Description: The amino acid binding profile of each Bis-atClpS2-V1 binder (PS609, PS610, and PS611) was evaluated by biolayer interferometry as described above. The monovalent atClpS2-V1 was run as a control. Measurements with each binder were carried out for the amino acids F, Y, and W, along with I, L, M, and V as negative controls. All peptides contained a penultimate alanine (A). Response curves for the tandem binders PS609, PS610, and PS611 are shown in FIGS. 35B, 35C, and 35D, respectively.
The multivalent binder PS612 is a polypeptide that contains tandem copies of two different ClpS protein monomers (atClpS2-V1 and PS372). The amino acid binding profile of PS612 was evaluated by biolayer interferometry as described above. The monovalent binders atClpS2-V1 and PS372 were separately run as controls.
The multivalent binder PS614 is a polypeptide that contains two copies of the ClpS binder PS372 oriented in tandem. The amino acid binding profile of PS614 was evaluated by biolayer interferometry as described above.
The multivalent binders PS637, PS638, and PS639 are polypeptides that each contain two copies of the ClpS binder PS557 oriented in tandem and separated by Linker 1, Linker 2, and Linker 3, respectively. The amino acid binding profiles of each binder was evaluated by biolayer interferometry as described above.

[4] = tested on: amino acid at a terminal position of a polypeptide; assay: Amino acid binding preference of recognition proteins (Tables 1 and 2); conditions: Table 1, ClpS proteins; amino acid identity at a terminal position of a polypeptide; inferred from literature and/or demonstrated by the inventors
Excerpt: It should be appreciated that these sequences and other examples described herein are meant to be non-limiting, and recognition molecules in accordance with the application can include any homologs, variants thereof, or fragments thereof minimally containing domains or subdomains responsible for peptide recognition.

[5] = tested on: FA, LF, WA, and YA peptides; assay: Binder-on-chip single-molecule assay (PS218 and wild-type atClpS1); assay type: binding; design: unit not given here
Description: A variant of atClpS1 was created with active-site substitutions rationally designed to achieve longer pulse widths which can be favorable in single-molecule sequencing reactions. The designed variant (PS218) contains the following mutations relative to wild-type atClpS1: M51F, E52Q, M73T, T70 W. Binder-on-chip experiments were performed for PS218 with FA, LF, WA, and YA peptides to evaluate recognition by signal pulse detection in single-molecule assays. As shown by the results in Table 7, the substitutions relative to the wild-type protein result in longer pulse widths with each peptide tested.

Molecule | binding affinity to N-terminal R with different penultimate amino acids [1] | binding to RA/KA/HA peptides (single-point screening) [1] | Binding Pref. [2] | N-terminal amino acids bound (biolayer interferometry) [3] | also measured
B1 | high binding affinity to R in the presence of a wide range of penultimate amino acids | favorable binding trajectories to RA and KA peptides with notably high response for RA peptide | K, R, H |  | binding range for RX dipeptides [1]: extensive binding range for RX dipeptides; dissociation rates with R dipeptides [1]: faster dissociation rates
B2 | high binding affinity to R in the presence of a wide range of penultimate amino acids | favorable binding trajectories to RA and KA peptides with notably high response for RA peptide | K, R, H |  | binding range for RX dipeptides [1]: extensive binding range for RX dipeptides; dissociation rates with R dipeptides [1]: faster dissociation rates
B3 | high binding affinity to R in the presence of a wide range of penultimate amino acids |  | K, R, H |  | 
B4 |  | favorable binding trajectories to RA and KA peptides with notably high response for RA peptide | K, R, H |  | 
B5 |  |  |  | N-terminal F, W, Y, I, L, and V | 
B6 |  |  |  | N-terminal I, L, and V | 
B7 |  |  |  | N-terminal I, L, and V | 
B8 |  |  |  | N-terminal I, L, and V | 
B9 |  |  |  | N-terminal I, L, and V | 
B10 |  |  |  |  | Binding Pref. [4]: F, W, Y, L; Median PW ([5]; FA peptide): 0.78; mean pulse width ([5]; FA peptide): 1.28; Median PW ([5]; LF peptide): 0.32; mean pulse width ([5]; LF peptide): 0.56; Median PW ([5]; WA peptide): 0.58; mean pulse width ([5]; WA peptide): 1.00; Median PW ([5]; YA peptide): 1.06; mean pulse width ([5]; YA peptide): 1.64
